Laboratory results: US10202593B2, “Evolved sortases and uses thereof” (President and Fellows of Harvard College, priority 2013, dated 2019)
Where two headings read alike, the source gives them in different places.

T1: LRETG (Staphylococcus aureus, UniProt Q2FV99, A104H/D160K/D165A/E105D/I182V/K138P/K152I/K162H/K173E/K190E/K196S/P94R/S102C/T164N)
T1 construct: All expressed sortases lack the N-terminal 59 amino acids; inferred from Ni-NTA purification; made in house; host or cells: E. coli BL21 (DE3), pET29
T1 sequence (Q2FV99 60-206 P94R/S102C/A104H/E105D/K138P/K152I/D160K/K162H/T164N/D165A/G167E/K173E/I182V/K190E/K196S): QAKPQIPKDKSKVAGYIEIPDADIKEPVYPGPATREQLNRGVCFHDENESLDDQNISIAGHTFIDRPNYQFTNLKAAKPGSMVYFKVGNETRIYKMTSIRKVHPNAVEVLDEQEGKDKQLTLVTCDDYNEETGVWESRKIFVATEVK

T2: LAETG (Abz-LAETGK(Dnp)-CONH2) (Staphylococcus aureus, UniProt Q2FV99, D160N/D165A/K190E/K196T/P94R)
T2 construct: All expressed sortases lack the N-terminal 59 amino acids; inferred from Ni-NTA purification; made in house; host or cells: E. coli BL21 (DE3), pET29
T2 sequence (Q2FV99 60-206 P94R/D160N/D165A/G167E/K190E/K196T): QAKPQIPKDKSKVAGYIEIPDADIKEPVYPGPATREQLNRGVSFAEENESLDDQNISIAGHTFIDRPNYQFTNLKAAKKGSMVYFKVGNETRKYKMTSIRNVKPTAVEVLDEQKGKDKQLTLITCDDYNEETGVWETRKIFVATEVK

T3: LPETG (Abz-LPETGK(Dnp)-CONH2) (Staphylococcus aureus, UniProt Q2FV99, D160N/D165A/K190E/K196T/P94R)
T3 construct: All expressed sortases lack the N-terminal 59 amino acids; inferred from Ni-NTA purification; made in house; host or cells: E. coli BL21 (DE3), pET29
T3 sequence (Q2FV99 60-206 P94R/D160N/D165A/G167E/K190E/K196T): T2 sequence (Q2FV99 60-206 P94R/D160N/D165A/G167E/K190E/K196T)

T4: LPESG (Abz-LPESGK(Dnp)-CONH2) (Staphylococcus aureus, UniProt Q2FV99, D160N/D165A/K190E/K196T/P94R)
T4 construct: All expressed sortases lack the N-terminal 59 amino acids; inferred from Ni-NTA purification; made in house; host or cells: E. coli BL21 (DE3), pET29
T4 sequence (Q2FV99 60-206 P94R/D160N/D165A/G167E/K190E/K196T): T2 sequence (Q2FV99 60-206 P94R/D160N/D165A/G167E/K190E/K196T)

B1: eSrtA(2A-9): P94R, S102C, A104H, E105D, K138P, K152I, N160K, K162H, T164N, D165A, K173E, I182V, K190E, T196S (protein)
chain: T1 sequence (Q2FV99 60-206 P94R/S102C/A104H/E105D/K138P/K152I/D160K/K162H/T164N/D165A/G167E/K173E/I182V/K190E/K196S)
B2: eSrtA (protein)
chain: T2 sequence (Q2FV99 60-206 P94R/D160N/D165A/G167E/K190E/K196T)

Experiments:
[1] = target: T1, LRETG; assay: In vitro sortase kinetics HPLC assay, LRETG substrate; assay type: biochemical
Procedure: See below for details on sortase expression and purification, and on the synthesis of Abz-LPETGK(Dnp)-CONH2 (SEQ ID NO: 19). […] Reactions were initiated with the addition of enzyme and incubated at 22.5° C. for 3 to 20 minutes before quenching with 0.5 volumes of 1 M HCl. Five to ten nmol of peptide from the quenched reactions were injected onto an analytical reverse-phase Eclipse XDB-C18 HPLC column (4.6×150 mm, 5 μm, Agilent Technologies) and chromatographed using a gradient of 10 to 65% acetonitrile with 0.1% TFA in 0.1% aqueous TFA over 13 minutes. Retention times under these conditions for the Abz-LPETGK(Dnp)-CONH2 (SEQ ID NO: 19) substrate, the released GKDnp peptide, and the Abz-LPETGGG-COOH (SEQ ID NO: 20) product were 12.8, 10.4, and 9.1 min, respectively. To calculate the percent conversion, the ratio of the integrated areas of the Abz-LPETGGG-COOH (SEQ ID NO: 20) and Abz-LPETGK(Dnp)-CONH2 (SEQ ID NO: 19) peptide Abs220 peaks was compared to a standard curve generated by mixing the product and starting peptide in known ratios. To determine […] and Km, reaction rates were fit to the Michaelis-Menten equation using OriginPro 7.0 software. All kinetics values reported represent the average of at least three measurements. Percent conversion was also calculated by using the ratio of the integrated areas of the GK(Dnp)-CONH2 and Abz-LPETGK(Dnp)-CONH2 peptide Abs355 peaks were compared directly (Example 5). To determine kcat and Km, LPETG, reaction rates were fit to the Michaelis-Menten equation using Microsoft Excel using the Solver add-in. To determine Km,GGG and KH, reaction rates were fit to the modified Michaelis-Menten, for which KH is as defined when KH<<Km,GGG.
Assays to determine eSrtA, eSrtA(2A-9) and eSrtA(4S-9) specificity were performed by preparing 10 μM stocks of Abz-LXEXGK(Dnp) (SEQ ID NO: 75) peptides in 300 mM Tris pH 7.5, 150 mM NaCl, 5 mM CaCl2, 5% v/v DMSO, and 100 mM Gly-Gly-Gly-COOH (GGG). Reactions were performed by adding eSrtA(2A-9) to a final concentration of 450 nM, eSrtA(4S-9) to a final concentration of 115 nM or eSrtA to a final concentration of 47.5 nM and a final volume of 100 μL, then incubating at 22.5° C. for 15 minutes. Reactions were quenched by the addition of 0.2 volumes of 5 M HCl, then were injected onto an analytical reverse-phase Eclipse XDB-C18 HPLC column (4.6×150 mm, 5 μm, Agilent Technologies) and chromatographed using a gradient of 10 to 65% acetonitrile with 0.1% TFA in 0.1% aqueous TFA over 13 minutes. […]

[2] = system: LPETG (Abz-LPETGK(Dnp)-CONH2); details: cited from earlier work
[3] = target: T2, LAETG (Abz-LAETGK(Dnp)-CONH2); assay: In vitro sortase kinetics HPLC assay, LAETG substrate; assay type: biochemical; details: candidate LAETG target
Procedure, shortened: (§1)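 Abz-LXEXGK(Dnp) peptides in 300 mM Tris pH 7.5, 150 mM NaCl, 5 mM CaCl2, 5% DMSO, GGG; 22.5° C., acid-quenched, converted fraction by reverse-phase HPLC peak areas. kcat and Km from eight substrate concentrations fit to Michaelis-Menten; KH at 1 mM substrate over eight GGG levels.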

[4] = target: T3, LPETG (Abz-LPETGK(Dnp)-CONH2); assay: In vitro sortase kinetics HPLC assay, LPETG substrate; assay type: biochemical; details: cognate LPETG substrate
Procedure, shortened: as §1

[5] = target: T4, LPESG (Abz-LPESGK(Dnp)-CONH2); assay: In vitro sortase kinetics HPLC assay, LPESG substrate; assay type: biochemical; details: ratio of kcat/KM
Procedure, shortened: as §1

Molecule | KH ([1]; 1 mM LRETG) | Km ([1]; 1 mM LRETG, read-out: Km,GGG) | Kcat (Hz) ([1]; Sub LRETG, 100 mM GGG) | Km ([1]; Sub LRETG, 100 mM GGG, read-out: Km) | higher catalytic activity relative to wild-type SrtA [2] | Km [3] | Km [4] | preference for LPETG over LPESG [5]
B1 | 47.5 ± 1.3 µM | 628 ± 11 µM | 0.25 ± 0.02 Hz | 1070 ± 63 µM |  |  |  | 
B2 |  |  |  |  | approximately 140 fold | 6100 µM | 200 µM | 5 fold
